In the Human Domainome abundance scans (Beltran et al. 2025):
± gives the uncertainty stated by the source.

B1: Ubiquitin-protein ligase residues 30 to 86; numbered along this chain, Q05086 (parent)
chain: KHLIERYYHQLTEGCGNEACTNEFCASCPTFLRMDNNAAAIKALELYKINAKLCDPH

Variants of: B1
Test: abundance fitness (aPCA) (normalised: wild type 0, dead -1); higher = more abundant; growth selection in yeast, the domain comes from the species named
Conditions: Homo sapiens

| Variant | abundance fitness |
| --- | --- |
| F31V | -0.038 ± 0.068 |
| F31W | -0.188 ± 0.11 |
| F31T | -0.023 ± 0.11 |
| F31M | 0.057 ± 0.11 |
| F31P | -0.185 ± 0.11 |
| F31C | -0.043 ± 0.087 |
| F31Y | -0.06 ± 0.11 |
| F31N | 0.027 ± 0.13 |
| F31Q | -0.098 ± 0.12 |
| F31G | -0.025 ± 0.059 |
| F31R | -0.14 ± 0.07 |
| F31H | -0.013 ± 0.16 |
| F31E | -0.124 ± 0.083 |
| C25A | -1.03 ± 0.18 |
| C25N | -0.882 ± 0.32 |
| C25V | -0.891 ± 0.11 |
| C25Y | -0.816 ± 0.095 |
| C25K | -1.01 ± 0.21 |
| C25R | -1.05 ± 0.12 |
| C25H | -0.887 ± 0.21 |
| C25P | -1.18 ± 0.23 |
| C25E | -0.72 ± 0.21 |
| C25M | -0.841 ± 0.15 |
| C25L | -1.08 ± 0.13 |

| Variant | abundance fitness |
| --- | --- |
| C25I | -0.613 ± 0.28 |
| C25G | -0.973 ± 0.1 |
| C25S | -0.741 ± 0.14 |
| C25W | -1.05 ± 0.23 |
| C25F | -0.791 ± 0.17 |
| A40Y | -0.192 ± 0.2 |
| A40W | -0.04 ± 0.074 |
| A40I | -0.242 ± 0.16 |
| A40D | 0.025 ± 0.11 |
| A40G | 0.046 ± 0.063 |
| A40S | 0.037 ± 0.062 |
| A40L | -0.083 ± 0.076 |
| A40Q | -0.015 ± 0.11 |
| A40T | 0.08 ± 0.1 |
| A40C | 0.067 ± 0.11 |
| A40N | 0.041 ± 0.14 |
| A40P | -0.171 ± 0.089 |
| A40K | -0.023 ± 0.13 |
| A40F | -0.194 ± 0.1 |
| A40E | 0.159 ± 0.098 |
| A39H | -0.228 ± 0.16 |
| A39Q | -0.317 ± 0.12 |
| A39M | -0.065 ± 0.087 |
| A39N | -0.242 ± 0.22 |

| Variant | abundance fitness |
| --- | --- |
| A39V | -0.084 ± 0.1 |
| A39W | -0.375 ± 0.081 |
| A39L | -0.096 ± 0.083 |
| A39F | -0.249 ± 0.17 |
| A39T | -0.065 ± 0.1 |
| A39G | -0.084 ± 0.086 |
| A39D | -0.605 ± 0.23 |
| A39Y | -0.239 ± 0.18 |
| A39E | -0.393 ± 0.13 |
| A39I | -0.085 ± 0.17 |
| A39K | -0.175 ± 0.11 |
| A39R | -0.053 ± 0.06 |
| N22Y | -0.277 ± 0.088 |
| A26K | 0.034 ± 0.093 |
| A26L | -0.143 ± 0.055 |
| A26W | -0.104 ± 0.079 |
| A26H | -0.163 ± 0.13 |
| A26I | -0.097 ± 0.094 |
| A26E | -0.332 ± 0.083 |
| A26P | -0.876 ± 0.12 |
| A26C | -0.053 ± 0.08 |
| A26V | -0.156 ± 0.052 |
| A26Y | -0.076 ± 0.1 |
| A26S | -0.047 ± 0.063 |

| Variant | abundance fitness |
| --- | --- |
| A26R | -0.096 ± 0.05 |
| A26F | 0.077 ± 0.12 |
| A26G | -0.146 ± 0.05 |
| A26D | -0.67 ± 0.09 |
| A26T | -0.328 ± 0.075 |
| A26Q | -0.156 ± 0.081 |
| A26M | -0.111 ± 0.067 |
| F24Q | 0.016 ± 0.08 |
| F24E | -0.057 ± 0.068 |
| F24M | -0.031 ± 0.071 |
| F24Y | -0.026 ± 0.086 |
| F24W | 0.07 ± 0.062 |
| F24V | -0.03 ± 0.052 |
| F24N | -0.017 ± 0.095 |
| F24P | -0.734 ± 0.088 |
| F24R | -0.095 ± 0.049 |
| F24I | -0.024 ± 0.083 |
| F24T | -0.018 ± 0.065 |
| F24S | -0.033 ± 0.056 |
| F24A | -0.041 ± 0.056 |
| F24L | -0.016 ± 0.055 |
| F24K | -0.041 ± 0.073 |
| F24H | 0.028 ± 0.097 |
| F24G | -0.057 ± 0.048 |

| Variant | abundance fitness |
| --- | --- |
| F24D | -0.026 ± 0.08 |
| S27G | -0.09 ± 0.048 |
| S27K | -0.06 ± 0.081 |
| S27E | -0.374 ± 0.069 |
| S27W | -0.772 ± 0.069 |
| S27R | -0.186 ± 0.05 |
| S27Q | -0.179 ± 0.091 |
| S27N | -0.06 ± 0.1 |
| S27D | -0.131 ± 0.082 |
| S27I | -0.763 ± 0.15 |
| S27T | -0.113 ± 0.072 |
| S27F | -0.349 ± 0.082 |
| S27M | -0.112 ± 0.072 |
| S27H | -0.196 ± 0.093 |
| S27L | -0.523 ± 0.058 |
| S27C | -0.061 ± 0.072 |
| S27P | -0.711 ± 0.098 |
| S27V | -0.594 ± 0.056 |
| S27A | -0.072 ± 0.056 |
| S27Y | -0.441 ± 0.1 |
| L32N | 0.202 ± 0.14 |
| L32C | -0.082 ± 0.11 |
| L32T | 0.098 ± 0.13 |
| L32S | -0.053 ± 0.072 |

| Variant | abundance fitness |
| --- | --- |
| L32H | -0.093 ± 0.12 |
| L32R | -0.033 ± 0.071 |
| L32I | -0.036 ± 0.14 |
| L32A | 0.006 ± 0.081 |
| L32P | 0.148 ± 0.14 |
| L32V | 0.009 ± 0.067 |
| L32D | -0.049 ± 0.11 |
| L32Y | -0.233 ± 0.18 |
| L32G | -0.034 ± 0.061 |
| L32K | 0.081 ± 0.13 |
| L32W | -0.193 ± 0.11 |
| L32Q | 0.043 ± 0.13 |
| L32F | -0.239 ± 0.13 |
| A38T | -0.07 ± 0.13 |
| A38M | -0.164 ± 0.12 |
| A38N | -0.213 ± 0.2 |
| A38C | -0.083 ± 0.2 |
| A38H | -0.19 ± 0.21 |
| A38G | -0.191 ± 0.077 |
| A38Q | -0.106 ± 0.12 |
| A38P | -0.006 ± 0.17 |
| A38L | 0.025 ± 0.095 |
| A38R | 0.005 ± 0.09 |
| A38V | 0.029 ± 0.1 |

| Variant | abundance fitness |
| --- | --- |
| A38Y | 0.08 ± 0.24 |
| A38K | -0.044 ± 0.13 |
| A38D | -0.295 ± 0.14 |
| A38W | -0.142 ± 0.12 |
| A38E | -0.108 ± 0.11 |
| A38I | -0.166 ± 0.16 |
| C28Q | -0.128 ± 0.08 |
| C28N | -0.006 ± 0.085 |
| C28Y | -0.06 ± 0.061 |
| C28I | -0.276 ± 0.095 |
| C28D | -0.171 ± 0.084 |
| C28P | -0.475 ± 0.08 |
| C28G | -0.183 ± 0.049 |
| C28E | -0.144 ± 0.062 |
| C28R | -0.071 ± 0.047 |
| C28V | -0.151 ± 0.054 |
| C28T | -0.07 ± 0.067 |
| C28F | -0.031 ± 0.075 |
| C28L | -0.217 ± 0.052 |
| C28S | -0.064 ± 0.053 |
| C28W | -0.16 ± 0.055 |
| C28A | -0.019 ± 0.06 |
| C28K | -0.038 ± 0.075 |
